Test results reported in US6084072A, “Purified lectin and methods of use” (The Regents of the University of Michigan, priority 1993, dated 2000).
Several values for one entry are separate records, joined by “and”; a condition that tells them apart may be missing. Identical values can stand only once.

Legend:
amaranthin = amaranthin (Amaranthus caudatus, UniProt Q71QF2); test: Precipitation of amaranthin by glycoproteins and glycoconjugates, native or glycosidase treated; type: binding; details: untreated glycoprotein or glycoconjugate; 80 μg amaranthin
Description: Glycosidase digestions, and in particular exo-β-galactosidase digestions were carried out for 9 hours at 37° C. in 0.1 M sodium citrate, pH 4.3 using 0.1 unit of enzyme/μmol of terminal galactosyl group. Endo-α-N-acetylgalactosaminidase treatment of asialo-ovine submaxillary mucin was done as described in Sadler, J. E., Rearick, J. L., Paulson, J. C., and Hill, R. L. (1979). GSC Exo-α-N-acetylgalactosaminidase digestion of asialo-ovine submaxillary mucin was carried out according to the recommendations of Genzyme of Boston, Mass. Glycoproteins were analyzed for carbohydrate composition, before and after glycosidase treatment, as described.
Precipitation assays were conducted in 1.5 ml centrifuge tubes by the method of So and Goldstein. Indicated amounts of glycoprotein were added to 80 μg of amaranthin, and the total volume was adjusted to 250 μl with phosphate buffered saline. The tubes were incubated at 37° C. and then kept at 4° C. for 2 days. The precipitates were centrifuged, washed with cold Phosphate buffered saline, dissolved in 0.05 N NaOH and analyzed for protein by the method of Lowery et al. using bovine serum albumin as the standard. […] Inhibition was determined relative to the amount of precipitate formed in the control with no sugar added. […]

[1] = tested on: human red blood cells (A, B, and O); details: see Lotan; cited from earlier work
[2] = tested on: well differentiated colonic adenocarcinoma sections; test: Inhibition of lectin binding with hapten sugars on tissue sections; parameters: species or system human; key to Labeling score: 4^+: Maximum labeling of the brown reaction product; 0: No staining of the slide compared to control sections; 1^+: trace or weak staining definitely not seen on control slides; 2+3^+: stronger staining, but definitely less than maximal
Description: Four micron paraffin embedded tissue sections attached to glass slides were deparaffinized by serial incubations in xylene (twice), absolute ethanol (thrice), 95% ethanol, 70% ethanol, water and finally equilibrated in phosphate buffered saline (PBS), pH 7.0, containing 0.1% bovine serum albumin (BSA) commercially available from Sigma Corp of St. Louis, Mo. The slides were blotted dry adjacent to the tissue sections, and biotinylated lectin was added at a concentration of 10 μg/ml (for ACA) and 20 μg/ml (for PNA) in a quantity sufficient to completely cover the hydrated tissue (100-2001 μl). The lectin was rinsed off after a 30 minute incubation by eight 2-second dips into phosphate buffered saline. The slides were again blotted, and the tissue covered with Streptavidin-horseradish peroxidase (HRP) obtained from Zymed Laboratories, San Francisco, Calif. at a concentration of 10 μg/ml for 30 minutes. The slides were rinsed as mentioned above, and the pigmented reaction product developed by the addition of a freshly prepared chromogen reagent solution prepared within two hours of use as follows.
3,3'-diaminobenzidine was aliqotted at 5 mg/mL in 0.01 M (Tris) tris hydroxy methyl amino methane saline, pH 7.5 and frozen at -70° C. until use. For use, the aliquot was thawed, diluted 1:10 in 0.01 M (Tris) tris hydroxy methyl amino methane saline pH 7.5, and 3.3 μL of 30% H2 O2 were added to each 5 ml. This solution was allowed to stand for 10 min, and 100-200 μl was applied to the tissue sections that had been incubated earlier with biotinylated lectin and Streptavidin-HRP. After 10 min, the slides were rinsed with albumin-free phosphate buffered saline. The tissues were briefly counterstained for 50 seconds with Gill's #3 hematoxylin bovine serum albumin, commercially available from Sigma Corp. of St. Louis, Mo., rinsed with water, and serially dehydrated using graded alcohols and xylene, and embedded in Permount, a trademarked, commercially available product of Allied-Fischer Scientific of Livonia, Mich.
The specificity of lectin binding was evaluated by preincubating the biotinylated lectin with inhibitory hapten sugar for 1-2 hours prior to its application to the tissue. In each instance, the reagents were prepared so that the final concentration of lectin on the slide was either 10 or 20 μg/ml and the hapten sugar was as indicated in the results. Galactose, lactose, GalNAc, and galactose-β1-3N-acetylgalactosamine-α-O-benzyl (T-antigen-α-O-benzyl) were also obtained from Sigma Corp.
The stained sections were examined with a light microscope using a 25× and 40× objective lenses and 10× eyepiece. Evaluation of lectin binding required the use of several approaches. First, the binding specificity was confirmed by coincubation of lectin with hapten sugars known to bind the lectin maximally. Maximum labeling of the brown reaction product was arbitrarily assigned a score 4^+. See Boland, C. R., Bresalier, R. S., and Roberts, J. A. "Assay of lectin binding sites in colonic cancer-associated mucins: comparison of fluorescence microscopy with a quantitative chromatographic technique." J. Histochem. Cytochem., 36: 1329-1334, 1988. No staining of the slide compared to control sections (i.e., in which lectin was omitted from the staining procedure) was assigned a score of 0. Intermediate scores of 1^+ (trace or weak staining definitely not seen on control slides) and 2+3^+ (stronger staining, but definitely less than maximal) were assigned. […] See Boland. This method was used to confirm the binding specificity to known "positive" tissues and to evaluate changes in lectin binding after neuraminidase treatment.
Specimens of well differentiated colonic cancers were incubated with biotinylated lectins. Working concentrations on the slide were 10 μg/ml for ACA and 20 μg/ml for PNA. The hapten sugars galactose (Gal), N-acetylgalactosamine (GalNAc), and Galβ1,3GalNAc-α-O-benzyl (T-antigen) were used to inhibit lectin binding to the tissues. […]

FAP colonic tissue = test: Lectin histochemistry, familial adenomatous polyposis (FAP) colonic tissue; type: binding, human; details: biotinylated ACA 10 μg/mL or PNA 20 μg/mL
Text: Full thickness specimens of colonic tissue were obtained from colectomy specimens for familial adenomatous polyposis at Johns Hopkins Hospital, fixed in formalin, and embedded in paraffin for tissue sectioning. The tissue specimens contained normal-appearing flat mucosa familial adenomatous polyposis, or FAP-normal, as well as a polypoid, adenomatious tissue familial adenomatous polyposis, or FAP-abnormal.
(§1) Four micron paraffin embedded tissue sections attached to glass slides were deparaffinized by serial incubations in xylene (twice), absolute ethanol (thrice), 95% ethanol, 70% ethanol, water and finally equilibrated in phosphate buffered saline (PBS), pH 7.0, containing 0.1% bovine serum albumin (BSA) commercially available from Sigma Corp of St. Louis, Mo. The slides were blotted dry adjacent to the tissue sections, and biotinylated lectin was added at a concentration of 10 μg/ml (for ACA) and 20 μg/ml (for PNA) in a quantity sufficient to completely cover the hydrated tissue (100-2001 μl). The lectin was rinsed off after a 30 minute incubation by eight 2-second dips into phosphate buffered saline. […]
Therefore, each individual crypt of Lieberkuhn was given a score from 0-4^+, and the labeling was expressed as a "weighted average", or, the sum of scores from 100 crypts, which could range from 0 (all crypts not labeled) to 400 (all 100 crypts maximally labeled). […]

colonic adenocarcinoma = type: binding, human; details: cancer specimens
HNPCC tissues = test: Lectin histochemistry, HNPCC rectal biopsies; type: binding, human; details: biotinylated ACA 10 μg/mL or PNA 20 μg/mL
Text: Rectal biopsies were obtained from individuals who were first degree relatives of patients with hereditary nonpolyposis colorectal cancer (HNPCC) as identified by H. T. Lynch, M.D. These patients were the siblings or offspring of index patients who fit the criteria for Lynch Syndrome I or II. See Drzeniek, Z., and Usowska, E. (1979) Arch. Immunol Ther. Exp. 27, 253-262. However, since there is no definitive genetic or phenotypic marker for this familial syndrome, it is not possible to be certain that these patients represent a single homogenous genetic abnormality. The biopsies were fixed in formalin, and embedded in paraffin for tissue sectioning.
as §1

[3] = tested on: normal colonic epithelium; type: binding, human

Sequence of amaranthin (Q71QF2 entry or part of it): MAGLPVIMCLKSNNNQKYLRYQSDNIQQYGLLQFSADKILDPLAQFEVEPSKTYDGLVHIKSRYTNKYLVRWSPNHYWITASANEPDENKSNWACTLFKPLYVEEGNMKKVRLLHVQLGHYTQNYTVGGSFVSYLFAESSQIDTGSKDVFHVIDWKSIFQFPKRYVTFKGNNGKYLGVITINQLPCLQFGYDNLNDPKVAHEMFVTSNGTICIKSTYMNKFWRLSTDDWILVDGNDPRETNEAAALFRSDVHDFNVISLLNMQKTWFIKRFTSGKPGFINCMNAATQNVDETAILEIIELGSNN

B1: asialoglycophorin: desialylated glycophorin (protein, UniProt P02724 20-150, looked up)
Glycophorin-A: LSTTEVAMHTSTSSSVTKSYISSQTNDTHKRDTYAATPRAHEVSEISVRTVYPPEEETGERVQLAHHFSEPEITLIIFGVMAGVIGTILLISYGIRRLIKKSPSDVKPLPSPDTDVPLSSVEIENPETSDQ
modifications: desialylated
notes: desialylated glycophorin
amaranthin
  precipitation of amaranthin, in words: most active precipitating agent

B2: glycophorin: native glycophorin, major component of red blood cell membranes (protein, UniProt P02724 20-150, looked up)
Glycophorin-A: B1 Glycophorin-A
amaranthin
  precipitation of amaranthin, in words: small amount of precipitate

B3: PNA: peanut (Arachis hypogaea) agglutinin, T-antigen binding lectin (protein, UniProt P02872 24-273, looked up)
Galactose-binding lectin: AETVSFNFNSFSEGNPAINFQGDVTVLSNGNIQLTNLNKVNSVGRVLYAMPVRIWSSATGNVASFLTSFSFEMKDIKDYDPADGIIFFIAPEDTQIPAGSIGGGTLGVSDTKGAGHFVGVEFDTYSNSEYNDPPTDHVGIDVNSVDSVKTVPWNSVSGAVVKVTVIYDSSTKTLSVAVTNDNGDITTIAQVVDLKAKLPERVKFGFSASGSLGGRQIHLIRSWSFTSTLITTTRRSIDNNEKKIMNMASA
[1]
  agglutination of native A, B, or O red blood cells, in words: does not agglutinate
[2]
  GalNAc concentration that inhibited labeling: ≥ 100 mM
  T-antigen concentration that inhibited labeling: ≥ 100 µM
  galactose concentration that inhibited labeling: ≥ 10 mM
  lactose concentration that inhibited labeling: ≥ 10 mM
[2]; Gal 2.5 mM
  Labeling score: Trace
[2]; Gal 10 mM
  Labeling score: 0
[2]; Gal 20 mM
  Labeling score: 0
[2]; Gal 100 mM
  Labeling score: 0
[2]; Gal 400 mM
  Labeling score: 0
[2]; GalNAc 100 mM
  Labeling score: 0
[2]; GalNAc 250 mM
  Labeling score: 0
[2]; Lactose 200 mM
  Labeling score: 0
[2]; Lactose 400 mM
  Labeling score: 0
[2]; T-antigen 100 μM
  Labeling score: 0
[2]; T-antigen 200 μM
  Labeling score: 0
[2]; T-antigen 400 μM
  Labeling score: 0
FAP colonic tissue
  Staining (global score 0-3+): does not bind and 0
Colonic adenocarcinoma
  Effect of Newcastle disease virus neuraminidase on labeling: much less effect
  Effect of V. Cholerae neuraminidase on labeling: greatly enhanced
HNPCC tissues
  Staining (global score 0-3+): rarely binds and 0 and 1^+
[3]
  Effect of neuraminidase treatment on labeling: did not produce an increase
  Labeling of normal colon in the tissue survey: No labeling
[3]; biotinylated ACA 10 μg/mL or PNA 20 μg/mL
  Staining (global score 0-3+): does not bind and 0
